In one experiment the target is T1, SCRM ACTL (405-494) (Arabidopsis thaliana, UniProt Q9LSE2 405-494).
T1 construct: SCREAM (SCRM, ICE1), Arabidopsis thaliana, At3G26744, ACT-like domain, residues 405-494; also called SCRM ACTL domain; source: E. coli BL21, purified (glutathione resin, thrombin, Superdex-200); not shown: GST, N-terminal, cleaved
T1 sequence (looked up): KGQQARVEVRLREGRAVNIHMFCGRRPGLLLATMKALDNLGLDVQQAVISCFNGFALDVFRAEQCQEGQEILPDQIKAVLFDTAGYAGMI
Description: ITC; Malvern PEAQ-ITC, 25 °C, PBS pH 7.4; 150 μM SCRM ACTL/SCRM L484F ACTL injected into 15 μM SPCH ACTL/MUTE ACTL. The conditions noted are these: both partners purified. A general note: ITC needs no label: the signal is the heat of the interaction.

Experiment [1] addresses T2, SCRM ACTL_(L484F) (405-494) (Arabidopsis thaliana, UniProt Q9LSE2 405-494, L484F).
T2 construct: SCREAM (SCRM, ICE1), Arabidopsis thaliana, At3G26744, ACT-like domain, residues 405-494, L484F (printed L485F in the methods); results, legends and the ITC methods print L484F; the cloning, CD and modelling methods print L485F; also called SCRM-ACTL_(L485F); SCRM L484F ACTL; source: E. coli BL21, purified (glutathione resin, thrombin, Superdex-200); not shown: GST, N-terminal, cleaved
T2 sequence (looked up): T1 sequence (looked up) with L80F
The description is as above. The conditions noted are these: both partners purified.

Substitutions are numbered along the chain they refer to.

B1: SPCH-ACTL (285-364) (domain or fragment, Arabidopsis thaliana, UniProt Q700C7 285-364, looked up)
chain: LADVEVKFSGANVLLKTVSHKIPGQVMKIIAALEDLALEILQVNINTVDETMLNSFTIKIGIECQLSAEELAQQIQQTFC
notes: source: E. coli BL21, purified (glutathione resin, thrombin, Superdex-200); not shown: GST, N-terminal, cleaved
On to B1, for which the Kd (commonly the constant that tells how readily two partners part at equilibrium) with SCRM ACTL (405-494) is 1.2 µM; in experiment [1], 1.7 µM.

The values above are taken from article PMC8892516, “Intragenic suppressors unravel the role of the SCREAM ACT-like domain for bHLH partner selectivity in stomatal development” (Proceedings of the National Academy of Sciences of the …, 2022).
